No end group written: not given here. *: point of attachment. aminohexane = linker joining biotin to the N-terminal residue; Biotin = O=C1N[C@H]2[C@H](CS[C@H]2CCCCC(=O)*)N1

We go through 23 molecules from patent US20180334702A1.

For this experiment, the target named is CDK4/6. In words: cell-based or functional assay. The settings on record: scale: relative value.
As to {Biotin-aminohexane}-GMPWSFNPWWRGGGG [Polypeptide 16], the CDK4/6 Reactivity was determined as 2.
In the case of {Biotin-aminohexane}-GMPWSPNPWWHGGGG [Polypeptide A], the CDK4/6 Reactivity worked out at 7.
With {Biotin-aminohexane}-GMPWSPNPWWKGGGG [Polypeptide B] the figure was 5; with {Biotin-aminohexane}-GMAWSPNPWWRGGGG [Polypeptide 4], 5; with {Biotin-aminohexane}-GMPWSPNAWWRGGGG [Polypeptide 8], 7.
For {Biotin-aminohexane}-GMYWSPNPWWRGGGG [Polypeptide E] the value was 6; for {Biotin-aminohexane}-GMPWSYNPWWRGGGG [Polypeptide 17], 2.
For {Biotin-aminohexane}-GMWWSPNPWWRGGGG [Polypeptide C], the CDK4/6 Reactivity is 5.
{Biotin-aminohexane}-GMPWSPNPWARGGGG [Polypeptide 10] had a CDK4/6 Reactivity of 15.
As for {Biotin-aminohexane}-GMPWSPNPWWRAGGG [Polypeptide 12], the CDK4/6 Reactivity stood at 6.
With {Biotin-aminohexane}-AMPWSPNPWWRGGGG [Polypeptide 2] the figure was 15; with {Biotin-aminohexane}-AMPWSPAPAARAGGG [Polypeptide F], 7.
With {Biotin-aminohexane}-GMPWSPNPAWRGGGG [Polypeptide 9] the figure was 7; with {Biotin-aminohexane}-GMPFSPNPWWRGGGG [Polypeptide 13], 5.
With {Biotin-aminohexane}-GMPWSANPWWRGGGG [Polypeptide 6] the figure was 1; with {Biotin-aminohexane}-GMPWSPNPWWAGGGG [Polypeptide 11], 3; with {Biotin-aminohexane}-GMPWSPNPWWRGGGG [Polypeptide 1], 13.
Molecule {Biotin-aminohexane}-GMPWSWNPWWRGGGG [Polypeptide 15] came in with a CDK4/6 Reactivity of 2.
For {Biotin-aminohexane}-GMFWSPNPWWRGGGG [Polypeptide D] the value was 5.
With {Biotin-aminohexane}-GMPYSPNPWWRGGGG [Polypeptide 14] the figure was 5.
{Biotin-aminohexane}-GAPWSPNPWWRGGGG [Polypeptide 3] returned a CDK4/6 Reactivity of 33.
{Biotin-aminohexane}-GMPASPNPWWRGGGG [Polypeptide 5] had a CDK4/6 Reactivity of 1.
For {Biotin-aminohexane}-GMPWSPAPWWRGGGG [Polypeptide 7] the value was 8.
